tested on: Escherichia coli TOP10; test: shrunken log2 fold change of peptide-encoding DNA abundance (4.5 h post-induction vs induction); higher = less antimicrobial activity (less host growth inhibition); settings: time post-induction: 4.5 h; library: site-saturation at positions 5, 18, 19, 20
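Further: peptides expressed intracellularly from a pBAD plasmid library in pooled LB shake-flask culture, induced with 0.3% L-arabinose, DNA abundance read by NGS, three biological replicates, DESeq2 with apeglm shrinkage.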

Sequence | shrunken log2 fold change
RRIRDRPPRLPRPRPRPCMVPRP | 0.0359
RRIRVRPPRLPRPRPRPFQPPRP | -0.152
RRIRFRPPRLPRPRPRPQGKPRP | -0.227
RRIRGRPPRLPRPRPRPPEPPRP | 0.397
RRIRVRPPRLPRPRPRPTPVPRP | 0.465
RRIRMRPPRLPRPRPRPAMVPRP | 0.501
RRIRCRPPRLPRPRPRPWLYPRP | -0.246
RRIRCRPPRLPRPRPRPEGQPRP | 0.788
RRIRCRPPRLPRPRPRPCHMPRP | -0.443
RRIRIRPPRLPRPRPRPNQRPRP | 0.00427
RRIRDRPPRLPRPRPRPDMQPRP | 1.13
RRIRPRPPRLPRPRPRPHGCPRP | 0.0229
RRIRIRPPRLPRPRPRPMGKPRP | -0.0139
RRIRVRPPRLPRPRPRPCAEPRP | -0.0931
RRIRNRPPRLPRPRPRPPSNPRP | -0.135
RRIRERPPRLPRPRPRPMQNPRP | 0.168
RRIRPRPPRLPRPRPRPRNFPRP | 0.192
RRIRRRPPRLPRPRPRPDHGPRP | -0.146
RRIRYRPPRLPRPRPRPTSEPRP | -0.0408
RRIRYRPPRLPRPRPRPYTGPRP | -0.0103
RRIRRRPPRLPRPRPRPFKEPRP | 0.00168
RRIRHRPPRLPRPRPRPIKKPRP | -0.06
RRIRQRPPRLPRPRPRPPTVPRP | -0.225
RRIRGRPPRLPRPRPRPLMTPRP | 2.81
RRIRMRPPRLPRPRPRPQNMPRP | -0.631

Sequence | shrunken log2 fold change
RRIRFRPPRLPRPRPRPMVIPRP | 0.023
RRIRPRPPRLPRPRPRPILGPRP | -0.148
RRIRGRPPRLPRPRPRPILSPRP | 0.516
RRIRVRPPRLPRPRPRPMMHPRP | -0.365
RRIRYRPPRLPRPRPRPCLYPRP | -0.783
RRIRCRPPRLPRPRPRPSPTPRP | 0.022
RRIRARPPRLPRPRPRPWKIPRP | -0.117
RRIRKRPPRLPRPRPRPPHPPRP | 0.672
RRIRIRPPRLPRPRPRPECSPRP | -0.428
RRIRERPPRLPRPRPRPEIHPRP | -0.0198
RRIRIRPPRLPRPRPRPQLRPRP | -0.203
RRIRWRPPRLPRPRPRPPNVPRP | 0.0153
RRIRVRPPRLPRPRPRPRASPRP | 0.281
RRIRARPPRLPRPRPRPWCIPRP | -0.319
RRIRGRPPRLPRPRPRPSLRPRP | 0.57
RRIRSRPPRLPRPRPRPLEMPRP | -0.314
RRIRPRPPRLPRPRPRPDTVPRP | -0.207
RRIRVRPPRLPRPRPRPFEMPRP | -0.572
RRIRHRPPRLPRPRPRPQSHPRP | -0.167
RRIRLRPPRLPRPRPRPYWVPRP | 0.135
RRIRARPPRLPRPRPRPAGTPRP | 0.308
RRIRHRPPRLPRPRPRPMQLPRP | -0.366
RRIRSRPPRLPRPRPRPTGPPRP | -0.0769
RRIRCRPPRLPRPRPRPPGHPRP | 0.422
RRIRVRPPRLPRPRPRPPIAPRP | 0.322

Sequence | shrunken log2 fold change
RRIRLRPPRLPRPRPRPVRIPRP | 0.115
RRIRPRPPRLPRPRPRPGIQPRP | -0.214
RRIRRRPPRLPRPRPRPDVWPRP | 0.611
RRIRCRPPRLPRPRPRPKKCPRP | -0.186
RRIRGRPPRLPRPRPRPHWTPRP | 0.00915
RRIRQRPPRLPRPRPRPSCGPRP | 0.117
RRIRCRPPRLPRPRPRPHMMPRP | -1.12
RRIRKRPPRLPRPRPRPVIIPRP | 0.0356
RRIRRRPPRLPRPRPRPIMEPRP | 0.161
RRIRPRPPRLPRPRPRPGVYPRP | 0.0962
RRIRTRPPRLPRPRPRPENPPRP | 0.261
RRIRLRPPRLPRPRPRPMMQPRP | -0.223
RRIRSRPPRLPRPRPRPEWFPRP | -0.287
RRIRFRPPRLPRPRPRPPEFPRP | 0.12
RRIRNRPPRLPRPRPRPYYYPRP | -0.0857
RRIRRRPPRLPRPRPRPRLMPRP | 0.316
RRIRCRPPRLPRPRPRPSVIPRP | -0.0544
RRIRERPPRLPRPRPRPTQVPRP | -0.0607
RRIRTRPPRLPRPRPRPDEEPRP | 0.0173
RRIRDRPPRLPRPRPRPKNSPRP | 0.788
RRIRNRPPRLPRPRPRPAQVPRP | 0.157
RRIRNRPPRLPRPRPRPCYTPRP | -0.0126
RRIRQRPPRLPRPRPRPLLWPRP | 0.091
RRIRWRPPRLPRPRPRPLLIPRP | 0.0213
RRIRWRPPRLPRPRPRPDPQPRP | -0.00387

Sequence | shrunken log2 fold change
RRIRWRPPRLPRPRPRPNEDPRP | 0.211
RRIRLRPPRLPRPRPRPFMTPRP | -0.824
RRIRCRPPRLPRPRPRPGLFPRP | 0.154
RRIRIRPPRLPRPRPRPFWIPRP | -0.193
RRIRSRPPRLPRPRPRPQNWPRP | 0.269
RRIRSRPPRLPRPRPRPFAEPRP | 0.256
RRIRLRPPRLPRPRPRPIYIPRP | -1.1
RRIRIRPPRLPRPRPRPGTLPRP | 0.0164
RRIRIRPPRLPRPRPRPDSMPRP | -0.00884
RRIRYRPPRLPRPRPRPWRWPRP | -0.036
RRIRARPPRLPRPRPRPHNQPRP | -0.00392
RRIRQRPPRLPRPRPRPGYPPRP | -0.181
RRIRERPPRLPRPRPRPYPVPRP | -0.224
RRIRARPPRLPRPRPRPEEDPRP | 1.77
RRIRFRPPRLPRPRPRPKRKPRP | 0.425
RRIRSRPPRLPRPRPRPDQGPRP | -0.196
RRIRNRPPRLPRPRPRPGRNPRP | -0.202
RRIRCRPPRLPRPRPRPEWLPRP | 0.479
RRIRLRPPRLPRPRPRPIMSPRP | -0.2
RRIRKRPPRLPRPRPRPKFGPRP | 0.0786
RRIRNRPPRLPRPRPRPGSYPRP | -0.442
RRIRCRPPRLPRPRPRPDDPPRP | 0.0647
RRIRCRPPRLPRPRPRPYIKPRP | -0.791
RRIRFRPPRLPRPRPRPFFAPRP | 0.424
RRIRERPPRLPRPRPRPECIPRP | 0.248

Sequence | shrunken log2 fold change
RRIRQRPPRLPRPRPRPGLCPRP | -0.0449
RRIRQRPPRLPRPRPRPENLPRP | -0.0164
RRIRFRPPRLPRPRPRPVWWPRP | 0.148
RRIRMRPPRLPRPRPRPVAAPRP | 2.1
RRIRKRPPRLPRPRPRPKLWPRP | 0.656
RRIRNRPPRLPRPRPRPISDPRP | -0.0335
RRIRLRPPRLPRPRPRPLGLPRP | -0.253
RRIRCRPPRLPRPRPRPFVMPRP | -0.153
RRIRWRPPRLPRPRPRPKYDPRP | -0.449
RRIRIRPPRLPRPRPRPRYWPRP | 0.0433
RRIRIRPPRLPRPRPRPAQFPRP | 0.0396
RRIRNRPPRLPRPRPRPRSRPRP | 0.177
RRIRLRPPRLPRPRPRPWPYPRP | -0.127
RRIRWRPPRLPRPRPRPTYCPRP | -0.126
RRIRIRPPRLPRPRPRPRYHPRP | -1.12
RRIRDRPPRLPRPRPRPMWGPRP | -0.0471
RRIRKRPPRLPRPRPRPLPHPRP | -0.0107
RRIRMRPPRLPRPRPRPLQRPRP | 0.0735
RRIRHRPPRLPRPRPRPQPPPRP | 0.373
RRIRGRPPRLPRPRPRPNDCPRP | -0.04
RRIRMRPPRLPRPRPRPTNFPRP | -0.0912
RRIRWRPPRLPRPRPRPVDNPRP | -0.018
RRIRSRPPRLPRPRPRPLAFPRP | -0.0837
RRIRHRPPRLPRPRPRPYRDPRP | -0.0135
RRIRYRPPRLPRPRPRPSFMPRP | -0.759

Sequence | shrunken log2 fold change
RRIRCRPPRLPRPRPRPVVEPRP | 0.0964
RRIRNRPPRLPRPRPRPELCPRP | 0.232
RRIRQRPPRLPRPRPRPSIEPRP | -0.373
RRIRYRPPRLPRPRPRPIWFPRP | -0.269
RRIRERPPRLPRPRPRPICSPRP | -0.0316
RRIRWRPPRLPRPRPRPWATPRP | 0.168
RRIRVRPPRLPRPRPRPTFHPRP | 0.0139
RRIRERPPRLPRPRPRPAENPRP | -0.27
RRIRWRPPRLPRPRPRPSQSPRP | -0.0797
RRIRDRPPRLPRPRPRPIIWPRP | 0.156
RRIRGRPPRLPRPRPRPKIIPRP | 0.303
RRIRHRPPRLPRPRPRPKNNPRP | -0.74
RRIRERPPRLPRPRPRPDDSPRP | -0.435
RRIRARPPRLPRPRPRPAMKPRP | 0.0417
RRIRIRPPRLPRPRPRPSEEPRP | -0.188
RRIRNRPPRLPRPRPRPWPEPRP | -0.0309
RRIRARPPRLPRPRPRPTAKPRP | 1.36
RRIRQRPPRLPRPRPRPPHIPRP | 0.213
RRIRVRPPRLPRPRPRPLWLPRP | -0.00434
RRIRVRPPRLPRPRPRPKCRPRP | 0.224
RRIRRRPPRLPRPRPRPQQCPRP | 0.15
RRIRKRPPRLPRPRPRPTSHPRP | 0.37
RRIRTRPPRLPRPRPRPRVWPRP | 0.382
RRIRHRPPRLPRPRPRPRLVPRP | -0.113
RRIRQRPPRLPRPRPRPPSCPRP | 0.348
